Source: article PMC9279676, “ERK2 MAP kinase regulates SUFU binding by multisite phosphorylation of GLI1” (Life Science Alliance, 2022)
Positions count from the first letter of the chain named.

Legend:
[1] = target: T1, GST-GLI1^S116, phosphorylated by ERK2 (human, UniProt P08151-1 68-232, S70A | S86A | S102A | S130A | S146A | S201A, phosphorylated by ERK2; only intact SP site S116); assay: GLI1 phosphorylated by ERK2
T1 sequence: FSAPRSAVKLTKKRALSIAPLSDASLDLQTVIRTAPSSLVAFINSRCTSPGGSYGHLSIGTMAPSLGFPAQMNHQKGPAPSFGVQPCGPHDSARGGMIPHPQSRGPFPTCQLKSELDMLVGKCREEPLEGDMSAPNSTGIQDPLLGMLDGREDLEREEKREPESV

[2] = target: T2, GST-GLI1^S130, phosphorylated by ERK2 (human, UniProt P08151-1 68-232, S70A | S86A | S102A | S116A | S146A | S201A, phosphorylated by ERK2; only intact SP site S130); assay: GLI1 phosphorylated by ERK2
T2 sequence: T1 sequence with S49A, A63S

[3] = target: T3, GST-GLI1^S116,S130, phosphorylated by ERK2 (human, UniProt P08151-1 68-232, S70A | S86A | S102A | S146A | S201A, phosphorylated by ERK2; intact SP sites S116, S130); assay: GLI1 phosphorylated by ERK2
T3 sequence: T1 sequence with A63S

[4] = target: phosphorylated single and double-phosphosite mutants; assay: pull-down; purified GST-GLI1_(68-232) variants (mock treated or ERK2 phosphorylated), 0 or 1.25-80 nM, on glutathione-Sepharose beads; ∼1 pmol 35S-SUFU in 200 μl; 15 min at 30°C, then 1 h at room temperature; Binding Buffer (20 mM Tris-HCl pH 7.5, 125 mM KOAc, 0.5 mM EDTA, 5 mM DTT, 0.1% Tween20, 12.5% glycerol) + 1 mg/ml BSA; bound SUFU quantified by SDS-PAGE and Phosphorimager; Kd from binding isotherms
[5] = target: the three “two sites only”-intact mutants, ERK2-phosphorylated; assay: as above
[6] = target: T4, GST-GLI1^S116,S130 (GST-GLI1_(68-232), only S116 and S130 intact), mock treated (human, UniProt P08151-1 68-232, S70A | S86A | S102A | S146A | S201A); assay: mock treated
T4 sequence: T1 sequence with A63S

[7] = target: T5, GST-GLI1^S102,S116 (GST-GLI1_(68-232), only S102 and S116 intact), mock treated (human, UniProt P08151-1 68-232, S70A | S86A | S130A | S146A | S201A); assay: mock treated
T5 sequence: T1 sequence with A35S

[8] = target: T6, GST-GLI1^S116, phosphorylated by ERK2 (human, UniProt P08151-1 68-232, S70A | S86A | S102A | S130A | S146A | S201A, phosphorylated by ERK2; only intact SP site S116); assay: pull-down; purified GST-GLI1_(68-232) variants (mock treated or ERK2 phosphorylated), 0 or 1.25-80 nM, on glutathione-Sepharose beads; ∼1 pmol 35S-SUFU in 200 μl; 15 min at 30°C, then 1 h at room temperature; Binding Buffer (20 mM Tris-HCl pH 7.5, 125 mM KOAc, 0.5 mM EDTA, 5 mM DTT, 0.1% Tween20, 12.5% glycerol) + 1 mg/ml BSA; bound SUFU quantified by SDS-PAGE and Phosphorimager; Kd from binding isotherms; conditions: one partner purified
T6 construct: only the SP site S116 intact; also called ERK2-treated GLI1^S116; source: bacteria, purified (glutathione-Sepharose); then phosphorylated with purified active ERK2
T6 sequence (looked up): T1 sequence

[9] = target: T7, GST-GLI1_(68-232), wild type, phosphorylated by ERK2 (human, UniProt P08151-1 68-232, phosphorylated by ERK2 to ∼3 mol phosphate per mole; most efficient sites Ser116 and Ser130, followed by Ser102 and Ser201); assay: as above; conditions: one partner purified
T7 construct: vector pGEX-LB; also called ERK2-phosphorylated GLI1; WT + ERK2; source: bacteria, purified (glutathione-Sepharose); then phosphorylated with purified active ERK2 (2 h, 30°C)
T7 sequence (looked up): T1 sequence with A3S, A19S, A35S, A63S, A79S, A134S

[10] = target: T8, GST-GLI1^S130, phosphorylated by ERK2 (human, UniProt P08151-1 68-232, S70A | S86A | S102A | S116A | S146A | S201A, phosphorylated by ERK2; only intact SP site S130); assay: as above; conditions: one partner purified
T8 construct: only the SP site S130 intact; also called ERK2-treated GLI1^S130; source: bacteria, purified (glutathione-Sepharose); then phosphorylated with purified active ERK2
T8 sequence (looked up): T1 sequence with S49A, A63S

Kd [1]: 36 nM | Kd [2]: 16 nM | Kd [3]: 53 nM | Kd [4]: 53 nM | fold increase of Kd after ERK2-mediated phosphorylation [5]: 4.8 to 8.3 fold | Kd [6]: 11 nM | Kd [7]: 6 nM | fold increase of Kd upon phosphorylation [8]: 2.6 fold | fold increase of Kd against unphosphorylated GLI1 [9]: ~30 fold | fold weakening of Kd against unphosphorylated GLI1 [9]: > 30 fold | fold reduction in affinity after ERK2 treatment [10]: 1.3 fold
B1: full-length human SUFU protein, 35S-radiolabeled (natural protein, UniProt Q9UMX1-1 1-484, looked up)
chain: MAELRPSGAPGPTAPPAPGPTAPPAFASLFPPGLHAIYGECRRLYPDQPNPLQVTAIVKYWLGGPDPLDYVSMYRNVGSPSANIPEHWHYISFGLSDLYGDNRVHEFTGTDGPSGFGFELTFRLKRETGESAPPTWPAELMQGLARYVFQSENTFCSGDHVSWHSPLDNSESRIQHMLLTEDPQMQPVQTPFGVVTFLQIVGVCTEELHSAQQWNGQGILELLRTVPIAGGPWLITDMRRGETIFEIDPHLQERVDKGIETDGSNLSGVSAKCAWDDLSRPPEDDEDSRSICIGTQPRRLSGKDTEQIRETLRRGLEINSKPVLPPINPQRQNGLAHDRAPSRKDSLESDSSTAIIPHELIRTRQLESVHLKFNQESGALIPLCLRGRLLHGRHFTYKSITGDMAITFVSTGVEGAFATEEHPYAAHGPWLQILLTEEFVEKMLEDLEDLTSPEEFKLPKEYSWPEKKLKVSILPDVVFDSPLH
modifications: [35S]-methionine label
notes: human SUFU, full length, residues 1-484, from plasmid pGEM4Z-SUFU; also called 35S-SUFU; radiolabeled SUFU; source: in vitro transcription and translation (SP6, Promega), partially purified by ammonium sulfate precipitation
